Results as given in paper PMC8174033, “FEZ1 Forms Complexes with CRMP1 and DCC to Regulate Axon and Dendrite Development” (eNeuro, 2021).

Biological target: T1, FEZ1 (amino acids 1-308), EmGFP-tagged (UniProt Q99689 1-308)
T1 construct: FEZ1, amino acids 1-308; plasmid as described in Chua et al., 2012; also called truncated FEZ1 lacking its C terminus; source: HEK293, transfected, in lysate
T1 sequence (looked up): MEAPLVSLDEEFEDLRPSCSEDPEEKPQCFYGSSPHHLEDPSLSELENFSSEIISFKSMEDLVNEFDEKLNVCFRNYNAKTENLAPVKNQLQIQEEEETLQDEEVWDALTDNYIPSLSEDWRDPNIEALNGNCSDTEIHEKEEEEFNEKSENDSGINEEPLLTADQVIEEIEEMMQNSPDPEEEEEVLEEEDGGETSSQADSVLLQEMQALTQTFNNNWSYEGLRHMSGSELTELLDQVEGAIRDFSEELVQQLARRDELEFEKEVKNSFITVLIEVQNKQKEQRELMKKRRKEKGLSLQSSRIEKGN
Assay: co-IP; HEK293 cells co-expressing the two tagged proteins, 24 h after transfection; lysis and washes in 50 mM HEPES, 150 mM NaCl, 1 mM EDTA, 1% Triton X-100, pH 7.2; GFP-Trap agarose beads 1-3 h at 4°C; immunoblot
Conditions: partners not purified

B1: collapsin response mediator protein 1 (CRMP1), full-length, FLAG-tagged (natural protein)
chain: not shown
notes: CRMP1, human cDNA, full-length, in pFLAG-CMV2; also called FLAG-CRMP1; source: HEK293, transfected, in lysate
  fold change of co-precipitated CRMP1 against full-length FEZ1: ~3 fold
